Test [1] addresses T1, Vascular Endothelial Growth Factor (VEGF-A) (UniProt P15692-4 27-191, limits assumed).
T1 construct: also called the antigen (of Bevacizumab)
Put plainly: ELISA, target binding (FIG. 60). (An ELISA detects its analyte on a solid surface through an enzyme-linked reagent.)

For test [2], the target named is T2, CD20 (UniProt P11836 1-297, limits assumed).
T2 construct: also called the antigen (of Rituximab and Obinutuzumab)
T2 sequence (looked up): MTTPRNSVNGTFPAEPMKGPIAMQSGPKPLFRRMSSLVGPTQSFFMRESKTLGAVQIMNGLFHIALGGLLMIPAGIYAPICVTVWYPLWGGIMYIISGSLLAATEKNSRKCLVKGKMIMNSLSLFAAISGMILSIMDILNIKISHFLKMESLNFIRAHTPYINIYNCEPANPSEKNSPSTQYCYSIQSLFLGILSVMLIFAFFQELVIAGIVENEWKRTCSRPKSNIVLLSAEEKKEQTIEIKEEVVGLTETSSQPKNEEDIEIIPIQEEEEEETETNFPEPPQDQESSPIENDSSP
Put plainly: ELISA, target binding (FIG. 57).

Test [3] addresses FcγRIIIA on the effector cells of the ADCC reporter assay (UniProt P08637 17-254, limits assumed). Put plainly: cell-based or functional assay.

From patent US20250333517A1 (ROCK BIOMEDICAL, published 2025) come the findings set out here.

T1 sequence (P15692 other isoform, or with tags, fused parts or gaps limits assumed): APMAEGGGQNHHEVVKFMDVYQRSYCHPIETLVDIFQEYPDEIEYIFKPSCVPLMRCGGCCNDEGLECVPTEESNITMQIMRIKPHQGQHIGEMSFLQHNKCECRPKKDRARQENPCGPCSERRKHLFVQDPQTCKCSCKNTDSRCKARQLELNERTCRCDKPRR
FcγRIIIA on the effector cells of the ADCC reporter assay, sequence (P08637 17-254 limits assumed): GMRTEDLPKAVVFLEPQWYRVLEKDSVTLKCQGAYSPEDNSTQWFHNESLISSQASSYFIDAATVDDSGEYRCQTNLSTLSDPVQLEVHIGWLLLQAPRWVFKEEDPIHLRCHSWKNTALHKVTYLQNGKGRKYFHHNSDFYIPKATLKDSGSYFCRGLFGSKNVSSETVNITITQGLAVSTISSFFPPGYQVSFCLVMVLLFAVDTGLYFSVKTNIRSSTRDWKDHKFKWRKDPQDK

B1: Bevacizumab population of the present disclosure (Biobetter), produced by SAII A3 cells (antibody, V domains shown)
VH: EVQLVESGGGLVQPGGSLRLSCAASGYTFTNYGMNWVRQAPGKGLEWVGWINTYTGEPTYAADFKRRFTFSLDTSKSTAYLQMNSLRAEDTAVYYCAKYPHYYGSSHWYFDVWGQGTLVTVSS
VL: DIQMTQSPSSLSASVGDRVTITCSASQDISNYLNWYQQKPGKAPKVLIYFTSSLHSGVPSRFSGSGSGTDFTLTISSLQPEDFATYYCQQYSTVPWTFGQGTKVEIKR
modifications: N-glycan on the heavy chain: around 82.6% SCT glycans, mostly with core fucose
notes: also called glycoengineered Avastin protein population
For B1, the EC50 in test [1] is 0.377 nM.

B2: Rituximab population of the present disclosure (Biobetter), produced by SAII A3 Fut8 KO cells (antibody, human IgG1, kappa)
heavy: not shown
light: QIVLSQSPAILSASPGEKVTMTCRASSSVSYIHWFQQKPGSSPKPWIYATSNLASGVPVRFSGSGSGTSYSLTISRVEAEDAATYYCQQWTSNPPTFGGGTKLEIKRTVAAPSVFIFPPSDEQLKSGTASVVCLLNNFYPREAKVQWKVDNALQSGNSQESVTEQDSKDSTYSLSSTLTLSKADYEKHKVYACEVTHQGLSSPVTKSFNRGEC
modifications: N-glycan on the heavy chain: around 83.4% SCT glycans, no core fucose
notes: also called glycoengineered MabThera protein population
As for B2, the concentration giving a half-maximal response (EC50) in test [2] was 0.77 nM. Besides, the “ADCC EC50 (M), ADCC Reporter Bioassay” value in test [3] came to 1.76e-10 M.

As usually defined, the EC50 is the concentration needed to bring the measured effect to its halfway point. A high value points to a less potent agent.
